Test results from US20240218054A1 (MABLOC, published 2024).

B1: ADI-46596 (antibody, V domains shown)
VH: QVQLQESGPGLVKPSGTLSLTCAVSGGSISSNNWWSWVRQPPGKGLEWIGDTYHSGSPSYNPSLKSRVTISVDKSKNEFSLKLSSVTAADTAVYFCARYCSGATCYGSNGMDVWGQGTTVTVSS
VL: QSVLTQPPSMSAAPGQKVTISCSGSSSNIGNNYVSWYRQLPGTAPKLLIYDNDKRPSGIPDRFSGSKSGTTATLGITGLQTGDEAVYYCGTWDFRLSALFGGGTKLTVL
notes: full-length IgG; also called Antibody Number 35
B2: ADI-46591 (antibody, V domains shown)
VH: QVQLQQWGPELVKPSGTLSLTCTVSGGSISSISWWSWVRQSPGKGLEWIGEINHSGSTVYNPSLKSRVTISVDKSKKQFSLKLRSVTAADTAVYYCVRYCSSTSCYGLNGMDVWGQGTTVTVSS
VL: QSVLTQPPSVSAAPGQKVTISCSGSSSNIGSNFVSWYQQLPGTAPKLLIYDNNKRPSGIPDRFSGSKSGTSATLAITGLQTGDEADYYCGTWDTRLSALFGGGTKVTVL
notes: full-length IgG; also called Antibody Number 39
B3: ADI-42809 (antibody, V domains shown)
VH: QVQLVESGPGLVKPSGTLSLTCAVSGDSISSTNWWSWVRQPPGKGLEYIGEIFHSGSTNYNPFLKSRVTISVDKSKNHFSLKLSSVTAADTAVYYCARGPLKSYWYFDLWGRGTLVTVSS
VL: QSVLTQPPSVSAAPGQKVTISCSGSSSNIGNNYVSWYQQLPGTAPKLLIYDNNKRPSGIPDRFSGSKSGTSATLGITGLQTGDEADYYCGTWDTSLSAGRVFGGGTKLTVL
notes: full-length IgG; also called Antibody Number 34
B4: ADI-48955 (antibody, V domains shown)
VH: QVQLVQSGGGLVNPGGSLRLSCAASGFTFTDYYMSWIRQAPGKGLEWVSYISSSGNTRYYADSVKGRFTISRDNAKNSLSLQMNSLRPEDTAIYYCARDGSLVNAIDYWGQGTLVTVSS
VL: QSVLTQPPSVSAAPGQKVTISCSGSSSNFGNDYVSWYQQLPGTAPKLLIYDNDKRPSGIPDRFSGSKSGTSATLGITGLQTGDEADYYCGTWDTSLSAAWVFGGGTKVTVL
notes: full-length IgG; also called Antibody Number 40
B5: ADI-42830 (antibody, V domains shown)
VH: EVQLLESGPGLVRPSGTLSLTCAVSGASISSNHWWTWVRQPPGKGLEWIGEIYHSGSPTYNPSLKSRVTISVDKSKNQFSLKLNSVTAADTAVYYCASTLWGGPLSVASDYWGQGTLVTVSS
VL: QSVLTQPPSVSAAPGQKVTISCSGSSSNIGNYYVSWYQQVPGTAPKLLIYDNNKRPSGIPDRFSGSKSGTSATLGITGLHTGDEAEYYCGTWDSSPSAGRVFGGGTKLTVL
notes: full-length IgG; also called Antibody Number 37
B6: ADI-42818 (antibody, V domains shown)
VH: EVQLVESGPGLVKPSGTLSLTCAVSGGSITGSNWWSWVRQPPGKGLEWIGEIYHTGSTSYNPSLKSRVTISVDNSKNHFSLRLTSVTAADTAVYYCARVRWSGSTSWDLDYWGQGTLVTVSS
VL: QSVVTQPPSVSAAPGQKVTISCSGSSSNIGNNYVSWYQQLPGTAPKLLIYDNNKRPSGIPDRFSGSTSGTSATLGITGLQTGDEAVYYCGTWDTSPSAGGVFGGGTKVTVL
notes: full-length IgG; also called Antibody Number 41
B7: ADI-46586 (antibody, V domains shown)
VH: EVQLVESGGGLVKPGGSLRLSCAASGFTFTDYYMSWIRQAPGKGLEWVSYITSSGNTKYYADSVKGRFTISRDNAKNSLFLQMNSLRAEDTAVYFCARDGSMVNAIDYWGQGTLVTVSS
VL: QPVLTQPPSVSAAPGQKVTISCSGSSSNIGNDYVSWYQQLPGTAPKLLIYDNNKRPSGIPDRFSGSKSGTSATLGITGLQTGDEGDYYCGTWDSSLSAAWVFGGGTKVTVL
notes: full-length IgG; also called Antibody Number 43
B8: ADI-42151 (antibody, V domains shown)
VH: QVQLQESGPGLVKPSGTLSLTCAVSGGSISSSNWWSWVRQPPGKGLEWIGEIYHSGSTTYNPSLKSRVTISVDKSKNQFSLKLSSVTAADTAVYYCARGPLKTYWYFDLWGRGTLVTVSS
VL: QSVVTQPPSVSAAPGQKVTISCSGSSSNIGNNYVSWYQQLPGTAPKLLIYDNNKRPSGIPDRFSGSKSGTSATLGITGLQTGDEADYYCGTWDTSLSAGRVFGGGTKLTVL
notes: full-length IgG; also called Antibody Number 51
B9: ADI-49138 (antibody, V domains shown)
VH: QVQLVESGGGVVQPGRSLRLSCAASGFTFSNSGMHWVRQAPGKGLEWVSVIWYDESNKYYADSVKGRFTISRDNSKNTVYLQMNTLRAEDTAVYYCARDAYASGDGGIDYWGQGALVTVSS
VL: QPVLTQSASVSGSPGQSITISCTGTSSDVGGYKYVSWYQQHPGKAPKLMIYEVSNRPSGVSIRFSGSKSGNTASLTISGLQAADEADYYCSSYRSSGTPYVFGTGTKVTVL
notes: full-length IgG; also called Antibody Number 44
B10: ADI-42847 (antibody, V domains shown)
VH: EVQLLESGPRLVKPSETLSLTCTVSGGSVRGGSHYWSWIRQPPGKGLEWIGYVYDSGSTNYNPSLKSRVSISVDMSKKQFSLKLRSVTAADTAVYHCVRVEEYVNNEEVRDYWGQGTMVTVSS
VL: DIVMTQTPATLSLSPGERATLSCRASQSVSSYLAWYQQKPGQAPRLLIYGASNRATGIPARFSGSGSGTDFTLTISSLEPEDFAVYYCLQRTNWPFTFGPGTKVEIK
notes: full-length IgG; also called Antibody Number 48
B11: ADI-46001 (antibody, V domains shown)
VH: EVQLVESGGGLVKPGGSLRLSCAASGFTFSDYYMSWIRQAPGKGLEWVSYISSSGNTIYYADSVKGRFTISRDNAKNSLYLQLNSLRAGDTAVYYCARDSNYFYGLDVWGQGTTVTVSS
VL: QPVLTQPPSVSVAPGQTARITCGGNNIGSKSVHWYQQKPGQAPMLVIYSNSDRPSGIPERFSGSNSGITATLTISRVEAGDEADYHCQVWDTSIDHHWVFGGGTKLTVL
notes: full-length IgG; also called Antibody Number 52
B12: ADI-49186 (antibody, V domains shown)
VH: QVQLVESGGGVVQPGRSLRLSCAASGFTFSNSGMHWVRQAPGQGLEWVALISYTGETKYYSDSLKARFTISRDNSKNTLYLQMSSLSNEDTAVYYCARDYYASGDGYFDYWGQGTLVTVSS
VL: DIVLTQSPDSLAVSLGERATINCKSSQSVLFGSNQKSCLAWYQQKPGQSPKLLIHWASTRESGVPDRFSGSGSGTDFTLTISSLQAEDVAVYYCQQYYSTPRTFGQGTKVEIK
notes: full-length IgG; also called Antibody Number 38
B13: ADI-42230 (antibody, V domains shown)
VH: QVQLVESGGGVVQPGRSLRLSCAASGFTFSSYAMHWVRQAPGKGLEWVAVISHDGSNKYYADSVKGRFTISRDNSKNTLYLQINSLRAEDTAVYYCPRDGLPGANQYFFYYGMDVWGQGTTVTVSS
VL: DIQVTQSPSSLSASVGDRVTITCRASQGISNYLAWYQQKPGKVPKLLIFAASTLRSGVPSRFRGSGSGTDFTLTISSLQPEDVATYYCQKYNSAPLTFGGGTKVEIK
notes: full-length IgG; also called Antibody Number 47
B14: ADI-42849 (antibody, V domains shown)
VH: QVQLVESGGGLVKPGGSLRLSCAASGFTFSDYYMSWIRQAPGKGLEWVSYITSSGNTMYYADSVKGRFTISRDNAKNSLYLQMNSLRAEDTAVYYCARDSNFNSNLDYWGQGTLVTVSS
VL: SYELTQPPSVSVAPGQTARITCGGHNVGSKSVHWYQQKPGQAPVLVVYDDSDRPSGIPERFSGSNSGNTATLTISRVEAGDEADYYCQVWDSSSDHPWVFGGGTKVTVL
notes: full-length IgG; also called Antibody Number 50
B15: ADI-50205 (antibody, V domains shown)
VH: QVQLQESGGGVVQPGRSLRLSCAASGFTFSNFGMHWVRQAPGKGLEWVAIISYDRSNKDYADSVKGRFTISRDNSKNTLYLQMNSLRAEDTAVYYCAKDQCGGDCTADYWGQGTLVTVSS
VL: QSVLIQPASVSGSPGQSITISCTGTSSDVGGDKYVSWYQQHPGKAPKLVIYEVSNRPSGVSNRFSGSKSGNTASLTISGLQAEDEADYYCSSYTSSGTPVVCGGGTKVTVL
notes: full-length IgG; also called Antibody Number 36
B16: ADI-49188 (antibody, V domains shown)
VH: EVQLLESGPGLVRPSGTLSLTCAVSGGSISTTDWWSWVRQPPGKGLEWIGEINQSGSTSYSPSFKSRVSISVDKSKRQFSLKLTSVTAADTAVYYCARDSWSGPTRNWFDPWGRGTLVTVSS
VL: QSVVTQPPSVSAAPGQKVTISCSGRSSNIGNSDVSWYQQFPGRAPKLLIYDNDERPSGIPDRFSGSKSGTSATLDITGLQTGDEADYYCGTWDSSLGGVIFGGGTKVTVL
notes: full-length IgG; also called Antibody Number 31
B17: ADI-50026 (antibody, V domains shown)
VH: EVQLLESGGGVVQPGRSLRLSCAASGFTFTTYAMHWVRQAPGKGLEWVAAVSYDGNNKYYADSVKGRFTISRDNSRNTLYLQMNSLRAEDTAVYFCARNTYYDRSGLIAYWGQGALVTVSS
VL: DIQVTQSPSSLSASVGDRVTITCQASQDISNYLNWYQHKPGRAPKLLIYDASNLERGVPSRFSGSGSGTDFTFTISSLQPEDIATYYCQQYDNLSRLTFGGGTKLEIK
notes: full-length IgG; also called Antibody Number 33
B18: ADI-50531 (antibody, V domains shown)
VH: EVTLKESGPTLVKPTQTLTLTCTFSGFSLSTSGVGVGWIRQPPGKALEWLALIYWDDDKRYSPSLKSRLTITKDTSKNQVVLTMTNMDPVDTATYYCAHSPRRITMVRGVIITWGDGMDVWGQGTTVTVSS
VL: QPVLTQPASVSGSPGQSITISCTGTSSDVGGYNYVSWYQQHPGKAPKLMIYDVSNRPSGVSNRFSGSKSGNTASLTISGLQAEDEADYYCSSYTSSSTLAVFGGGTKLTVL
notes: full-length IgG; also called Antibody Number 42
B19: ADI-42831 (antibody, V domains shown)
VH: EVQLVESGGGLVQPGGSLRLSCAASGFTFINYAMTWVRQAPGKGLEWVSAISGNGDGTYYADSVKGRFTLSRDNAKNTIYLHMSALRDEDTALYYCAKDQGVTTDWPSDYWGQGTLVTVSS
VL: DIRLTQSPSTLSASVGDRVTVTCRASQNINTYLAWYQQIPGKAPRLLIYRASTLESGVPSRFSGSGSGTEFTLTINSLQPDDYATYYCQHYETYSVRFGQGTKVEIK
notes: full-length IgG; also called Antibody Number 46
B20: ADI-42821 (antibody, V domains shown)
VH: EVQLLESGGGLVPPGGSLRLSCAASGFTFSNYAMSWVRQAPGKGLEWVSAISGSGDSTYYADSVKGRFTLSRDTSKKMVYLHMSNLRDDDTAVYYCARDQGFTTDWPCDYWGQGTLVTVSS
VL: DIVLTQSPSTLSASVGDRVTVTCRASQNINTYLAWYQQIPGKAPRLLIYRASSLESGVPSRFSGSGSGTEFTLTISSLQPDDFATYYCQHYNSFSVKFGQGTKVEIK
notes: full-length IgG; also called Antibody Number 49
B21: ADI-42188 (antibody, V domains shown)
VH: EVQLLESGPGLVKPSGTLSLTCAVSGGSISSGNWWSWVRQPPGKGLEWIGEIYHSGSANYNPSLKSRVTISVDKSKNQFSLKLTSVTAADTAVYYCARVVWEYSNAWCVDFWGQGTTVTVSS
VL: QSVLTQPPSVSAAPGQKVTISCSGSSSNIGNNYVSWYQQLPGTAPKLLIYDNNKRPSGIPDRFSGSKSGTSATLGITGLQTGDEADYYCETWDSSLGVVVFGGGTKLTVL
notes: full-length IgG; also called Antibody Number 32
B22: ADI-45097 (antibody, V domains shown)
VH: EVQLVESGGGVVQPGRSLRLSCAASGFTFNSHGMHWVRQAPGKGLEWVAVISYDGTKKYFADSVKGRFTISRDNSKNTLYLQMSSLRADDTAVYYCAKDSSTSWYQVVYHIDYWGQGTLVTVSS
VL: QSVVTQPPSVSAAPGQKVTISCSGSSSNIGNNYVAWYQQLPGRAPKLLIHDNKKRPSGIPDRFSGSASGTSATLGITGLQTGDEADYYCETWDSSLNAVVFGGGTKLTVL
notes: full-length IgG; also called Antibody Number 5

target: T1, recombinant YFV E protein (soluble E, sE; YFV Asibi strain) (Yellow fever virus, Asibi strain, UniProt Q6DV88 286-678); test: BLI monovalent (IgG on tip)
T1 construct: also called YFV E antigen; YFV E monomer
T1 sequence (Q6DV88 286-678): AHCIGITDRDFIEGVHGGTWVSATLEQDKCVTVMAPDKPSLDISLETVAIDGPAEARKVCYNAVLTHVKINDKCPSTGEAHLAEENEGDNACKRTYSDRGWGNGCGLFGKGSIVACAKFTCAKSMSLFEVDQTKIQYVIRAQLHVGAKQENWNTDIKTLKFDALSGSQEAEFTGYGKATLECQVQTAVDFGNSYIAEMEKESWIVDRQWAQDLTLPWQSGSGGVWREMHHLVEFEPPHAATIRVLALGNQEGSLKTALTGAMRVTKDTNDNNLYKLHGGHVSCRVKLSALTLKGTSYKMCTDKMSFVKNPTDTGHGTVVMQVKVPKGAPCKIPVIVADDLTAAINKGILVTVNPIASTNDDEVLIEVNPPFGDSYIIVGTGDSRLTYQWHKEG

Compared with B1, B2 is 1.9-fold higher in Kd: 5.11 nM for the first, 9.6 nM for the second.

First: B3
Second: B4
The Kd of the first is 1.8-fold higher: 3.78 nM for the first, 2.05 nM for the second.

B5 and B6 are within 1.5-fold of each other in Kd: 3.48 nM for the first, 2.41 nM for the second.

Compared with B7, B8 is 140-fold higher in Kd: 2.16 nM for the first, 297 nM for the second.

Compared with B9, B10 is 5.5-fold lower in Kd: 17.5 nM for the first, 3.21 nM for the second. The second binds more tightly here.

Going from B11 to B12, the Kd rises from 6.17 nM to 12.3 nM (2-fold). The first binds more tightly here.

B13 and B14 are within 1.5-fold of each other in Kd: 1.99 nM for the first, 1.98 nM for the second.

Going from B15 to B16, the Kd falls from 18.8 nM to 9.54 nM (2-fold).

B17 and B18 cannot be ordered by Kd: > 100 nM for the first, > 100 nM for the second.

Going from B19 to B20, the Kd falls from 19.6 nM to 12.1 nM (1.6-fold). The second binds more tightly here.

First: B21
Second: B22
The Kd of the first is 23-fold higher: 37.1 nM for the first, 1.62 nM for the second. The second binds more tightly here.
